This is an account of results in patent US12037595B2, “Rust resistance gene” (Commonwealth Scientific and Industrial Research Organisation, priority 2013, dated 2024).

The target of data set [1] is T1, Wheat Lr67 (susceptible) protein, Lr67(sus), SUT sugar transporter, SEQ ID NO:4 (Triticum aestivum, UniProt W5ELX6).
T1 construct: D-genome copy) in pRS416 with ADH1 promoter, expressed in S. cerevisiae EBY.VW4000 (hexose transport deficient)
T1 sequence (W5ELX6 1-514): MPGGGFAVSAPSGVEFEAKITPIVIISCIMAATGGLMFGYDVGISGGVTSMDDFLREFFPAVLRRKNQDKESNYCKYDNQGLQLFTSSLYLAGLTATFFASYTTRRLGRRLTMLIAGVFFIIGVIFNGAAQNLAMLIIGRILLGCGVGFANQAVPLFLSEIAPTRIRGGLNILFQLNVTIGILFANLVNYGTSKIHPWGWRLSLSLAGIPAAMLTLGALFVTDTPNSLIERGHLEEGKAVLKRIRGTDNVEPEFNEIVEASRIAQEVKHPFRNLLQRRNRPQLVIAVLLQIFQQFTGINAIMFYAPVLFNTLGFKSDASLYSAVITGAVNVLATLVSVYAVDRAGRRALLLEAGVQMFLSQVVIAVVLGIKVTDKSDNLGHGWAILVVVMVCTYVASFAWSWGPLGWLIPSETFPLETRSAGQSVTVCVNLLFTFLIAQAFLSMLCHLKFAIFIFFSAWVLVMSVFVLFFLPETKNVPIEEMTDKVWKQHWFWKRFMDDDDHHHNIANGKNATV
The experiment in a line: Concentration-dependent uptake of [14C] glucose in yeast expressing Lr67(sus). The data set is classed as cell-based. Conditions: [14C] glucose uptake; Lr67(sus) expressed in hexose transport deficient Saccharomyces cerevisiae EBY.VW4000; Lineweaver-Burk linear regression. The method, then:
The following experiments were completed using the protein coding regions for the Lr67 polypeptides (resistant and susceptible alleles) cloned into the yeast expression vector pRS416. This vector contained the constitutive ADH1 promoter and CYC1 terminator for expression of the inserted coding regions. The yeast strain employed was a hexose transport deficient variant of Saccharomyces cerevisiae named EBY.VW4000. Uptake was determined using radio labelled [^14C] glucose with incorporation radio-assayed by liquid scintillation counting.
(§1) The Lineweaver-Burk equation was used to convert data for linear regression analysis.

Substrate in data set [2]: OC[C@H]1OC(O)[C@H](O)[C@@H](O)[C@@H]1O
The experiment in a line: cells, lysate or membranes. The conditions noted are these: other: [14C] glucose uptake; Lr67(sus) expressed in hexose transport deficient Saccharomyces cerevisiae EBY.VW4000; Lineweaver-Burk linear regression.

The subject of data set [3] is hexose transport deficient variant of Saccharomyces cerevisiae named EBY.VW4000. The data set can be described thus: Glucose uptake by yeast cells expressing Lr67 polypeptides, radio labelled [14C] glucose. The data set is classed as cell-based. Conditions: 100 μM [14C] glucose for 10 minutes, tested at 2 minute intervals, vs empty vector, FIG. 11.
Description: The following experiments were completed using the protein coding regions for the Lr67 polypeptides (resistant and susceptible alleles) cloned into the yeast expression vector pRS416. This vector contained the constitutive ADH1 promoter and CYC1 terminator for expression of the inserted coding regions. The yeast strain employed was a hexose transport deficient variant of Saccharomyces cerevisiae named EBY.VW4000.
as §1

Where a chain is given by its changes, count along the chain named.

As for `OC[C@H]1OC(O)[C@H](O)[C@@H](O)[C@@H]1O` (stereo partly shown) [glucose], the Vmax in data set [1] is listed as 3.02 nmol min^−1 g FW^−1.

B1: Wheat Lr67 (susceptible) protein, Lr67(sus), SUT sugar transporter, SEQ ID NO:4 (Triticum aestivum) (protein)
chain: T1 sequence (W5ELX6 1-514)
B1: in data set [2], the Km was found to be 73 µM. For the same molecule, the “Glucose uptake over time” value in data set [3] was “capable of transporting glucose at a higher rate than yeast cells expressing the Lr67 resistant allele or empty vector”.

B2: Lr67(res): Wheat Lr67 (resistant) protein, 514 amino acids, arginine at position 144 and leucine at position 387 (protein, listed as Triticum aestivum)
chain: T1 sequence (W5ELX6 1-514) with G144R, V387L
Consider B2, for which the “Glucose uptake over time” value in data set [3] was “did not show detectable glucose transport activity above the control”.

A word on the Km: it is the concentration of substrate that gives half-maximal velocity.
